Tests used:
[1] = target: T1, CXCR4 mutation library clone 914 (N192K) (human, UniProt P61073 1-352); test: immunofluorescence, high stringency, average for residue N192 (one clone)
[2] = target: T2, CXCR4 mutation library clone 1057 (K230E, S178R) (human, UniProt P61073 1-352); test: immunofluorescence on HEK-293T expressing the clone, normalised to wild type
T2 chain: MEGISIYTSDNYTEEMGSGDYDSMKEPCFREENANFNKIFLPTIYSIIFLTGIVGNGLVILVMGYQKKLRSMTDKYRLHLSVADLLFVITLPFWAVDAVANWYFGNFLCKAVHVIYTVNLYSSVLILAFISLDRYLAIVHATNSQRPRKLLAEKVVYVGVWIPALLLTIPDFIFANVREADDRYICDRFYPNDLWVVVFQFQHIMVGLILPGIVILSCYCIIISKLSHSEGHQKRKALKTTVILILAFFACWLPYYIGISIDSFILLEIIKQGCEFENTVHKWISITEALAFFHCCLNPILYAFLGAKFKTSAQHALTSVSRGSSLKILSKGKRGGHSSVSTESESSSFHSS

[3] = target: CXCR4 mutation library clone 2396 (S178C) (human, UniProt P61073 1-352); test: as above
[4] = target: T3, CXCR4 mutation library clone 2834 (E179V, G258E) (human, UniProt P61073 1-352); test: as above
T3 chain: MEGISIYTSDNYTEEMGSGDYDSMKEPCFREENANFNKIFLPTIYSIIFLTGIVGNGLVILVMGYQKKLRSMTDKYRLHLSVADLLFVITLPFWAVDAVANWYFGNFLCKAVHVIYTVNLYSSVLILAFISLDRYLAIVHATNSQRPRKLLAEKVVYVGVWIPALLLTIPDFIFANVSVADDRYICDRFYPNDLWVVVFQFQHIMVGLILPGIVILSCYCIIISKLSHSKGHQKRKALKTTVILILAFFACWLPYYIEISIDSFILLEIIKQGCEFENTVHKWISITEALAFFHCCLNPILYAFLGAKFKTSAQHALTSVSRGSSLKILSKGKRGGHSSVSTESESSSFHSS

[5] = target: T4, CXCR4 mutation library clone 414 (C218R, E179V, S351T) (human, UniProt P61073 1-352); test: as above
T4 chain: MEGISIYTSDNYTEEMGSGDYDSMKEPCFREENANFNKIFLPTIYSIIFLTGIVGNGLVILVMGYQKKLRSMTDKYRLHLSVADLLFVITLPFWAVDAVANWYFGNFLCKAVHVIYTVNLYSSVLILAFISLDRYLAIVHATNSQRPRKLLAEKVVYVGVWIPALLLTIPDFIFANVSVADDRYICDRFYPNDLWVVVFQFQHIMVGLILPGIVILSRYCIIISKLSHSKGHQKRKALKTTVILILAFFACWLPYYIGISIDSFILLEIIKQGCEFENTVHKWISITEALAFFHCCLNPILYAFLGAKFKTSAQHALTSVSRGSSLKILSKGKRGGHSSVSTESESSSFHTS

[6] = target: T1, CXCR4 mutation library clone 914 (N192K); test: as above
[7] = target: T5, CXCR4 mutation library clone 709 (P163L, S178I) (human, UniProt P61073 1-352); test: as above
T5 chain: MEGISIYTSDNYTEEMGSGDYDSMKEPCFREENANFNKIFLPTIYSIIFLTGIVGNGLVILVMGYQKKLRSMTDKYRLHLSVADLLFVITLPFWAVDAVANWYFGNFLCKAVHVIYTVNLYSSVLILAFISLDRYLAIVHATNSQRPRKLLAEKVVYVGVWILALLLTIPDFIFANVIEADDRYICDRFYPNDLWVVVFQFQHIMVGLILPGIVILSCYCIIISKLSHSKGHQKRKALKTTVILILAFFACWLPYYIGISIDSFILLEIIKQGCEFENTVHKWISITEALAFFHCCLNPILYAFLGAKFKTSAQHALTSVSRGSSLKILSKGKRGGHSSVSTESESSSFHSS

[8] = target: all CXCR4 library clones containing a mutation at F189; test: immunofluorescence, average over all clones with a mutation at F189
[9] = target: all CXCR4 library clones containing a mutation at E277; test: immunofluorescence, high stringency, average over all clones with a mutation at E277

B1: Nanobody 238D2 (VHH)
VHH: EVQLVESGGGLVQTGGSLRLSCAASGFTFSSYAMSWVRQAPGKGLEWVSGIKSSGDSTRYAGSVKGRFTISRDNAKNMLYLQMYSLKPEDTAVYYCAKSRVSRTGLYTYDNRGQGTQVTVSS
- average nanobody reactivity [1]: 8.3%
- % immunofluorescence [2]: 54.6%
- % immunofluorescence [3]: 44.9%
- % immunofluorescence [4]: 84.6%
- % immunofluorescence [5]: 71.1%
- % immunofluorescence [6]: 8.3%
- % immunofluorescence [7]: 64.1%
- average nanobody reactivity [8]: -0.9%
- average nanobody reactivity [9]: 27.5%

Reference: patent US20110117113A1, “IMMUNOGLOBULIN SINGLE VARIABLE DOMAIN DIRECTED AGAINST HUMAN CXCR4 AND OTHER CELL ASSOCIATED PROTEINS AND METHODS TO GENERATE THEM” (priority 2009, published 2011)
